Blank lines part the entries; values can stand above or below the binder they belong to. Ends that are not written are not given here.
What was measured:
[1] = molecular target: serpin enzyme complex receptor (SEC-R) on human hepatoma cell lines (human); assay: 125I-C105Y saturation binding on HepG2 (low) cells, Scatchard analysis
[2] = molecular target: serpin enzyme complex receptor (SEC-R) on human hepatoma cell lines (human); assay: 125I-C105Y specific binding on cells
[3] = molecular target: serpin enzyme complex receptor (SEC-R) on human hepatoma cell lines (human); assay: 125I-C105Y saturation binding on HepG2 (high) cells, Scatchard analysis
[4] = molecular target: serpin enzyme complex receptor (SEC-R) on human hepatoma cell lines (human); assay: 125I-C105Y saturation binding on HuH7 cells, Scatchard analysis
[5] = molecular target: serpin enzyme complex receptor (SEC-R) on human hepatoma cell lines (human); assay: fluorescence microscopy of HepG2(high) cells with 100 nM fluorescein labeled peptide at 4 C; cells per 100 counted
[6] = molecular target: serpin enzyme complex receptor (SEC-R) on human hepatoma cell lines (human); assay: fluorescence microscopy of HuH7 cells with 100 nM fluorescein labeled peptide at 4 C; cells per 100 counted
[7] = molecular target: serpin enzyme complex receptor (SEC-R) on human hepatoma cell lines (human); assay: fluorescence microscopy of HepG2(low) cells with 100 nM fluorescein labeled peptide at 4 C; cells per 100 counted

Kd [1]: 22.5 nM
fold less specific binding, HepG2 (low) against HepG2 (high) [2]: 7.5 fold
fold less specific binding, HepG2 (low) against HuH7 [2]: 10 fold
fold more C105Y bound, HuH7 against HepG2 (high) [2]: 1.5 fold
Kd [3]: 50 nM
Kd [4]: 70 nM
B1: Peptide C105Y (peptide)
peptide: CSIPPEVKFNKPFVYLI
modifications: also: radio-iodinated with 125I, site not given here

Average % Fluorescent Cells [5]: 20.4%
Average % Fluorescent Cells [6]: 14.3%
Average % Fluorescent Cells [7]: 1.8%
B2: fluorescein labeled C1315 peptide (peptide)
peptide: CFLEAIPMSIPPEVKFNKPFVFLIIHRD
modifications: also: labelled with fluorescein isothiocyanate, site not given here
